Patent US8357656B2, “Natriuretic peptide receptor-C agonists” (Mayo Foundation for Medical Education and Research, priority 2007, dated 2013)

Assays:
rat NPR-A = molecular target: T1, rat NPR-A (Rattus norvegicus, UniProt P18910); assay: cGMP production in HEK293 cells stably expressing rat NPR-A; type: cell-based; conditions: stimulated for 3 minutes, cGMP RIA (FIG. 1)
T1 construct: expressed in transfected cells; host or cells: HEK293 (293GCA cells)
T1 sequence (P18910 29-1057): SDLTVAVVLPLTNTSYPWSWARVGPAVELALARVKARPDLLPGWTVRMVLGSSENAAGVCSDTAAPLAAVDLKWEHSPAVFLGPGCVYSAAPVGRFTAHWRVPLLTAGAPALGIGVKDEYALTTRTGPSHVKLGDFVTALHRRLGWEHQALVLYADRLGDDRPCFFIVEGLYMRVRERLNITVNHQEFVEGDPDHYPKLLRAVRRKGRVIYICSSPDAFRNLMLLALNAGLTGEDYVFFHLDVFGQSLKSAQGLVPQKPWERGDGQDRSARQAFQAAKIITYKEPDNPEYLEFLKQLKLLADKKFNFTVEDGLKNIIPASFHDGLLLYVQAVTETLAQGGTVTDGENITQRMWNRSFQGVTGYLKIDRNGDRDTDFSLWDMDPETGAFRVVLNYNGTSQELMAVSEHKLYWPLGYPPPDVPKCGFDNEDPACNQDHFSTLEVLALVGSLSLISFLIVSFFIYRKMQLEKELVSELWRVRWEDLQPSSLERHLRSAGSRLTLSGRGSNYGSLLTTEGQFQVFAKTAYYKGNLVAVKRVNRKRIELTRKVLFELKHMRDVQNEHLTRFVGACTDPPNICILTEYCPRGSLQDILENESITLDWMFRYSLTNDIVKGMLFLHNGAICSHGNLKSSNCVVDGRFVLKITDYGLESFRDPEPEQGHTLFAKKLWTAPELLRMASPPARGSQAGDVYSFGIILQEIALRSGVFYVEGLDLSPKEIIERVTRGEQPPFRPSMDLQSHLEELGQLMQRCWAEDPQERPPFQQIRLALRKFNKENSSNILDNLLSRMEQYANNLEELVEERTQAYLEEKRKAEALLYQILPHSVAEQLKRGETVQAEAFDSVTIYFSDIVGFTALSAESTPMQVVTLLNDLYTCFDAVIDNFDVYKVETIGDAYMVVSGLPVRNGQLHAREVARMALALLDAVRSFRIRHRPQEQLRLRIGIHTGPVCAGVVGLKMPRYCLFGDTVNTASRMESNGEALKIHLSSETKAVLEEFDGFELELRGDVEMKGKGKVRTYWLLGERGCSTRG
Description: (§1) HEK293 cells stably expressing rat NPR-A or NPR-B were prepared using methods similar to those described elsewhere (Fan et al., Mol. Pharmacol., 67:174-83 (2005); and Bryan and Potter, J. Biol. Chem., 277:16041-16047 (2002)). The cells were maintained in Dulbecco's modified Eagle's medium (DMEM) supplemented with 10% FBS, 100 units/mL penicillin, 100 μg/mL streptomycin, and 200 μg/mL G418. The cells were plated in 48-well plates and grown to 90% confluency. On the day of the assay, the cells were incubated in serum-free medium for 4 hours. The cells were pretreated for 10 minutes at 37° C. in DMEM containing 25 mM HEPES, pH 7.4 and 0.5 mM 1-methyl-3-isobutylxanthine by aspirating the starvation medium. After pretreatment, the medium was replaced with the same medium containing the indicated concentrations of natriuretic peptides. The cells were stimulated for 3 minutes with CNP, rat BNP, human BNP, ASBNP, or ASBNP.1. The reaction was stopped by aspiration of the medium and addition of 200 μL ice-cold 80% ethanol. Cyclic GMP concentrations were estimated from an aliquot of the ethanol extract using a Perkin Elmer cGMP RIA kit without acetylation as described elsewhere (Bryan and Potter, J. Biol. Chem., 277:16041-16047 (2002); and Abbey and Potter, J. Biol. Chem., 277:42423-30 (2002)).

human NPR-C = molecular target: T2, human NPR-C (Homo sapiens, UniProt P17342); assay: Binding to human NPR-C; conditions: FIG. 3
T2 sequence (P17342 27-541): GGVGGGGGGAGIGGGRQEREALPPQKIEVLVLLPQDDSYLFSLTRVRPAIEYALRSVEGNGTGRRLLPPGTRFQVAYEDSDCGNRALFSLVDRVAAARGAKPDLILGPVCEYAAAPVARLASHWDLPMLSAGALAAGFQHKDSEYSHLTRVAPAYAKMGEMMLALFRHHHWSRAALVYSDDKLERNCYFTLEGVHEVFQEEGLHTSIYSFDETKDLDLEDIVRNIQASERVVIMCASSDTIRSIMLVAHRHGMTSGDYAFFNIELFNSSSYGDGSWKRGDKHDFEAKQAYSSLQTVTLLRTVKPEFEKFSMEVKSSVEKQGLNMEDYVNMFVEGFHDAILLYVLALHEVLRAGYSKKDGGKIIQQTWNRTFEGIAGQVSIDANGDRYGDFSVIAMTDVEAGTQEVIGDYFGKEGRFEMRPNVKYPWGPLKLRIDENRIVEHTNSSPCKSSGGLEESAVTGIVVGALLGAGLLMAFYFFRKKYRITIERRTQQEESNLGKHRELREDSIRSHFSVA
Description: Human BNP and ASBNP.1 binding to human NPR-C was assessed using methods similar to those described elsewhere (Fan et al., Mol. Pharmacol., 67:174-83 (2005)).

rat NPR-B = molecular target: T3, rat NPR-B (Rattus norvegicus, UniProt P16067); assay: cGMP production in HEK293 cells stably expressing rat NPR-B; type: cell-based; conditions: stimulated for 3 minutes, cGMP RIA (FIG. 2)
T3 construct: expressed in transfected cells; host or cells: HEK293 (293GCB cells)
T3 sequence (P16067 17-1047): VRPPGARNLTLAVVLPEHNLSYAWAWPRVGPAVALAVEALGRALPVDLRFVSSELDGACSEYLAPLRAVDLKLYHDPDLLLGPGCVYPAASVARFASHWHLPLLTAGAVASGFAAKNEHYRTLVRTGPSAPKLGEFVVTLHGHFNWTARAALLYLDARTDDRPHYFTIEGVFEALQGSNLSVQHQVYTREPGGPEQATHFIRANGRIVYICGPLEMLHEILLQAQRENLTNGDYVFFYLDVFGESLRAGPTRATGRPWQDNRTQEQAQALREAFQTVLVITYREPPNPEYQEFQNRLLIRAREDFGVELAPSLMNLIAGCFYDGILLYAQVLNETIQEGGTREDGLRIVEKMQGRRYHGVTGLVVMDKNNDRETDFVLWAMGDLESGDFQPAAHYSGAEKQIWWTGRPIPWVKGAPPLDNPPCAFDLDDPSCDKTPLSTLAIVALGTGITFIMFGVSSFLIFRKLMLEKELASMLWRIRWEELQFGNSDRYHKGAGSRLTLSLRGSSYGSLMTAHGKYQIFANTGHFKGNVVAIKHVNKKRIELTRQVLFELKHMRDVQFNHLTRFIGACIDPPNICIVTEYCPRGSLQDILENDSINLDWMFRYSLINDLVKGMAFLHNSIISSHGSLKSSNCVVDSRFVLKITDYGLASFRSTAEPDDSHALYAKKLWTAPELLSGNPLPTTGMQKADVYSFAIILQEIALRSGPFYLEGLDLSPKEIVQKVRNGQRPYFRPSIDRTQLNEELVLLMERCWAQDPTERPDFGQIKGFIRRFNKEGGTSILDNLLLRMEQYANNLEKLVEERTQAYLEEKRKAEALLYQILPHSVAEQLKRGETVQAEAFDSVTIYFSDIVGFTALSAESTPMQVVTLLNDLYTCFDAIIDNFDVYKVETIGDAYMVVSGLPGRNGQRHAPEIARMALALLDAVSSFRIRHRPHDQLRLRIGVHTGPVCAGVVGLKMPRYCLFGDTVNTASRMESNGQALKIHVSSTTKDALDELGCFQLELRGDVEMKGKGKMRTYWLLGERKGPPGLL
Description: as §1

Substance	activation of cells expressing rat NPR-A (cGMP) (rat NPR-A)	binding to human NPR-C (human NPR-C)	activation of cells expressing rat NPR-B (cGMP) (rat NPR-B)
ASBNP.1: ASBNP.1 polypeptide that is 42 amino acid residues in length (SEQ ID NO:1) (SPKMVQGSGCFGRKMDRISSSSGLGCKGKHPLPPRPPSPIPV)	did not exhibit any activity	exhibited binding to human NPR-C	–
ASBNP.2: ASBNP.2 polypeptide, 60 amino acid residues in length with an alanine at position 43 (SEQ ID NO:3) (SPKMVQGSGCFGRKMDRISSSSGLGCKGKHPLPPRPPSPIPVADTVRVTLGFVVSGNHTL)	–	–	exhibited little, if any, activity
BNP: human BNP, natriuretic polypeptide of myocardial cell origin; main form is a 32 amino acid polypeptide with a ring structure	activated cells expressing rat NPR-A at concentrations in the mM range	exhibited binding to human NPR-C	exhibited little, if any, activity
C-type natriuretic peptide [CNP]	–	–	activated cells expressing rat NPR-B
